The text below walks through data of paper PMC12317982.

B1: EMC1-FLAG [human] / TMEM38B, Strep-tagged [not stated] (parent)
chain 1: YEDQVGKFDWRQQYVGKVKFASLEFSPGSKKLVVATEKNVIAALNSRTGEILWRHVDKGTAEGAVDAMLLHGQDVITVSNGGRIMRSWETNIGGLNWEITLDSGSFQALGLVGLQESVRYIAVLKKTTLALHHLSSGHLKWVEHLPESDSIHYQMVYSYGSGVVWALGVVPFSHVNIVKFNVEDGEIVQQVRVSTPWLQHLSGACGVVDEAVLVCPDPSSRSLQTLALETEWELRQIPLQSLDLEFGSGFQPRVLPTQPNPVDASRAQFFLHLSPSHYALLQYHYGTLSLLKNFPQTALVSFATTGEKTVAAVMACRNEVQKSSSSEDGSMGSFSEKSSSKDSLACFNQTYTINLYLVETGRRLLDTTITFSLEQSGTRPERLYIQVFLKKDDSVGYRALVQTEDHLLLFLQQLAGKVVLWSREESLAEVVCLEMVDLPLTGAQAELEGEFGKKADGLLGMFLKRLSSQLILLQAWTSHLWKMFYDARKPRSQIKNEINIDTLARDEFNLQKMMVMVTASGKLFGIESSSGTILWKQYLPNVKPDSSFKLMVQRTTAHFPHPPQCTLLVKDKESGMSSLYVFNPIFGKWSQVAPPVLKRPILQSLLLPVMDQDYAKVLLLIDDEYKVTAFPATRNVLRQLHELAPSIFFYLVDAEQGRLCGYRLRKDLTTELSWELTIPPEVQRIVKVKGKRSSEHVHSQGRVMGDRSVLYKSLNPNLLAVVTESTDAHHERTFIGIFLIDGVTGRIIHSSVQKKAKGPVHIVHSENWVVYQYWNTKARRNEFTVLELYEGTEQYNATAFSSLDRPQLPQVLQQSYIFPSSISAMEATITERGITSRHLLIGLPSGAILSLPKALLDPRRPEIPTEQSREENLIPYSPDVQIHAERFINYNQTVSRMRGIYTAPSGLESTCLVVAYGLDIYQTRVYPSKQFDVLKDDYDYVLISSVLFGLVFATMITKRLAQVKLLNRAWR
chain 2: MDSPWDELALAFSRTSMFPFFDIAHYLVSVMAVKRQPGAAALAWKNPISSWFTAMLHCFGGGILSCLLLAEPPLKFLANHTNILLASSIWYITFFCPHDLVSQGYSYLPVQLLASGMKEVTRTWKIVGGVTHANSYYKNGWIVMIAIGWARGAGGTIITNFERLVKGDWKPEGDEWLKMSYPAKVTLLGSVIFTFQHTQHLAISKHNLMFLYTIFIVATKITMMTTQTSTMTFAPFEDTLSWMLFGWQQPFSSCEKKSEAKSPSNGVGSLASKPVDVASDNVKKKHTKKNE
B2: EMC1-FLAG [human] / BCAP31, Strep-tagged [not stated] (parent)
chain 1: B1 chain 1
chain 2: MSLQWTAVATFLYAEVFVVLLLCIPFISPKRWQKIFKSRLVELLVSYGNTFFVVLIVILVLLVIDAVREIRKYDDVTEKVNLQNNPGAMEHFHMKLFRAQRNLYIAGFSLLLSFLLRRLVTLISQQATLLASNEAFKKQAESASEAAKKYMEENDQLKKGAAVDGGKLDVGNAEVKLEEENRSLKADLQKLKDELASTKQKLEKAENQVLAMRKQSEGLTKEYDRLLEEHAKLQAAVDGPMDKKEE
B3: EMC1-FLAG [human] / SLC3A2, Strep-tagged [not stated] (parent)
chain 1: B1 chain 1
chain 2: MSQDTEVDMKEVELNELEPEKQPMNAASGAAMSLAGAEKNGLVKIKVAEDEAEAAAAAKFTGLSKEELLKVAGSPGWVRTRWALLLLFWLGWLGMLAGAVVIIVRAPRCRELPAQKWWHTGALYRIGDLQAFQGHGAGNLAGLKGRLDYLSSLKVKGLVLGPIHKNQKDDVAQTDLLQIDPNFGSKEDFDSLLQSAKKKSIRVILDLTPNYRGENSWFSTQVDTVATKVKDALEFWLQAGVDGFQVRDIENLKDASSFLAEWQNITKGFSEDRLLIAGTNSSDLQQILSLLESNKDLLLTSSYLSDSGSTGEHTKSLVTQYLNATGNRWCSWSLSQARLLTSFLPAQLLRLYQLMLFTLPGTPVFSYGDEIGLDAAALPGQPMEAPVMLWDESSFPDIPGAVSANMTVKGQSEDPGSLLSLFRRLSDQRSKERSLLHGDFHAFSAGPGLFSYIRHWDQNERFLVVLNFGDVGLSAGLQASDLPASASLPAKADLLLSTQPGREEGSPLELERLKLEPHEGLLLRFPYAA

The first assay covers variants of B1. The experiment in a line: co-IP and immunoblot (quantified). To be noted: with TMEM38B, read off a plot. In general terms: A western blot detects proteins with antibodies after separation by electrophoresis.
On to chain 1 F948A F952A, for which the ratio to parent turned out to be 0.4.
On the same count and under the same terms, the result for chain 1 V941K S944K S945K reads 0.78.

Variants of B2 are the subject of a further assay. As to the kind of experiment: co-IP and immunoblot (quantified). To be noted: with BCAP31, Strep-tagged;; read off a plot.
Regarding chain 1 F948A F952A, the ratio to parent is 0.75.
On the same count and under the same terms, the result for chain 1 V941K S944K S945K reads 0.57.

A further assay covers variants of B3. As to the kind of experiment: co-IP and immunoblot (quantified). To be noted: with SLC3A2, Strep-tagged;; read off a plot.
For chain 1 F948A F952A, the ratio to parent came out at 0.87.
On the same count and under the same terms, the result for chain 1 V941K S944K S945K reads 0.51.
